In this data set the test system is MS2 coat protein. Description: apparent KD of MS2 coat protein; higher = weaker reporter binding. Particulars: Eterna round: R107. The method in brief: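 Values are apparent KD, taken as the median for each design of fits to normalised binding curves from individual clusters. The designed RNA switches were transcribed on-chip from Illumina sequencing clusters and exposed to SNAP-549-labelled MS2 coat protein at twofold increasing amounts from 0.7 or 1.5 nM to 3 µM. Titration used 100 mM Tris-HCl pH 7.5, 80 mM KCl and 4 mM MgCl2, without or with constant ligand.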

Setting [1] is: input ligand: theophylline 20 uM.
The mark [2] stands for this setting: input ligand: tryptophan 2.4 mM.
[3] abbreviates: input ligand: theophylline 2 mM.

Consider 18 sequences from the supplement of paper PMC9170038.

With “GACCUUGCGGGCGCCCGCAAGGUCGCGGAUACCAGCGAGGUCCAUCGCCCUUGGCAGCCGAACAUGAGGAUCACCCAUGUCGGUU [Same State - Theophylline A Attempt #5 (HarryS)]”, the “apparent KD of MS2 coat protein” value by setting is: (input ligand: arginine 13.2 mM) 8.39 nM; under setting [1], 12.8 nM; under setting [2], 11 nM.
For the sequence “GACGGCUCGACGGCCGCCACUCCCUCCGACUGAAGGCACAGUGGACAUGAGGAUCACCCAUGUCCGAGGACCGGGUCGAUCCUGG [theeternabot_sameState_MS2_Trp_B_32]”, the “apparent KD of MS2 coat protein” value was 14.5 nM (input ligand: arginine 13.2 mM), 19.3 nM under setting [1] and 18.3 nM under setting [3].
As for “GAGAGUGUGUGCGAAAGCACAGAUCUGGAAGGAGCGUAGAAAGAUACAGGUAGGUCGCCGGGACAUGAGGAUCACCCAUGUGUAU [ArgiA-ms2@63]”, the “apparent KD of MS2 coat protein” value by setting is: (input ligand: arginine 13.2 mM) 38.9 nM; (input ligand: none) 37.7 nM; under setting [1], 52.6 nM; under setting [3], 35.8 nM; under setting [2], 34.2 nM.
On the same counts, the results for “GAGCACAUGAGGAUCACCCAUGUUGGCACACGAGGACCGGUACGGCCGCCACUCGCGGCGGGAAUAACUUUGCGCAGAUGAUGGG [theeternabot_sameState_MS2_Trp_A_50]” are 27.5 nM, 23.9 nM, 37.5 nM, 23.7 nM and 21.4 nM.
As for “GAGCGCGUGGACUGGCGUGCUCCGCUCCGUCGAGGACCGGUACGGCCGCCACUCGACAUGAGGAUCACCCAUGUGUGCGCUCGCG [#1 Exclusion - Tryptophan A Attempt #19 (HarryS)]”, the “apparent KD of MS2 coat protein” value is, setting by setting: (input ligand: arginine 13.2 mM) 32.9 nM; under setting [1], 210 nM; under setting [3], 317 nM.
In the case of “GAGCUGAUGUAGGCCGGAUAUCCGGGAGAUACCAGUACAGAAAUGUACCCUUGGCAGCUCUUUCUUACAUGAGGAUCACCCAUGU [Ex Theophylline A 27]”, the “apparent KD of MS2 coat protein” value reads like this: (input ligand: arginine 13.2 mM) 11.5 nM; (input ligand: none) 13.1 nM; under setting [1], 15.4 nM; under setting [3], 19.1 nM; under setting [2], 13.4 nM.
Take “GAUCAAAGAUCACAUGAGGAUCACCCAUGUCGAGGACCGGUACGGCCGCCACUCGCGGCGGUGAAAAUAGAUACAAAGUAUCUAU [Ex_TrypA - ViennaApproves]”: the “apparent KD of MS2 coat protein” value is 40.1 nM (input ligand: arginine 13.2 mM), 83.9 nM under setting [1] and 86.1 nM under setting [3].
With “GAUCUGUCGGGUGAUACCAGCCUCGGCGCGUCUCGCGCUGAACAUGAGGAUCACCCAUGUGGCCCUUGGCAGCACAUGACAAAUC [Ditere]”, the “apparent KD of MS2 coat protein” value was 189 nM (input ligand: arginine 13.2 mM), 488 nM under setting [1] and 598 nM under setting [2].
Consider “GAUGAACUAUUUGAUACCAGACUACAUGAGGAUCACCCAUGUGAGUUUAUACUUCUGUCAGUCCCUUGGCAGCAAAUAGUUUAUC [XTheo B #5]”, for which the “apparent KD of MS2 coat protein” value was 21.5 nM (input ligand: arginine 13.2 mM), 27.8 nM under setting [1] and 16.4 nM under setting [2].
Consider “GCAAAGUGAUCGGCCGCCACUGCAAUGCUUAAUGGAGGUCCACAUGAGGAUCACCCAUGUCUUCCCAGGACCGGGAUCUCGAGUU [theeternabot_sameState_MS2_Trp_B_3]”, for which the “apparent KD of MS2 coat protein” value (input ligand: arginine 13.2 mM) came out at 59 nM, the “apparent KD of MS2 coat protein” value under setting [1] was 65.5 nM and the “apparent KD of MS2 coat protein” value under setting [3] was found to be 72.6 nM.
On the same counts, the results for “GCAACGCUGUCGGCCGCCACUUUUACAUUGGCCGUGCUGUCUCUACAUGAGGAUCACCCAUGUGGAAGGACCGGGACAGCACACU [Arzaleer]” are 21.2 nM, 39.6 nM and 44.7 nM.
Turning to “GCAAUACAUGAGGAUCACCCAUGUGCAGAUACCAGAGGUGUAUGCCUCCCUUGGCAGCUGCGACGCUCUGGCAUCUUGUGGGAUG [Same State Theophylline A GF19]”, the “apparent KD of MS2 coat protein” value (input ligand: arginine 13.2 mM) is 22.2 nM, the “apparent KD of MS2 coat protein” value under setting [1] came to 73.7 nM and the “apparent KD of MS2 coat protein” value under setting [2] was found to be 52 nM.
Regarding “GCACAAGAUGGAAGGAGCGCUGGAAAAGGUCACAUGAGGAUCACCCAUGUUCUCCUAACCGAGCAGGUAGGUCGCCAUCUUGUGC [SSAB NP+V+V2 #1]”, the “apparent KD of MS2 coat protein” value came out at 24 nM (input ligand: arginine 13.2 mM); 23.7 nM (input ligand: none); 25.6 nM under setting [1]; 29.8 nM under setting [3]; 25.9 nM under setting [2].
In the same order, the values of “GCACAUGAGGAUCACCCAUGUAUUACUGAAGGAGCGAGACAGAACUCAGGUAGGUCGCAGACGGCGGAAUCGCCGACGACAUGGG [Exclusion Arginine A GF23]” are 20.3 nM, 36.7 nM, 66.5 nM, 40.7 nM and 27.7 nM.
In the case of “GCACCAGGUACGGAUACCAGCUGCCAGCGUUACAUGAGGAUCACCCAUGUGAUCUGAAGUAGCCCUUGGCAGCUGUACCUGGUGC [SSThB NP+V+V2 #4 +-Same Structure]”, the “apparent KD of MS2 coat protein” value was found to be 96.7 nM (input ligand: arginine 13.2 mM), 207 nM under setting [1] and 62 nM under setting [2].
As for “GCACGACAUGAGGAUCACCCAUGUGCAGAUACCAGUAAUGUAUAUUACCCUUGGCAGCUGAGUAGGUCUGGAGGGCUAUAGGUAA [Same State Theophylline A GF11]”, the “apparent KD of MS2 coat protein” value stood at 11.6 nM (input ligand: arginine 13.2 mM); 12.3 nM (input ligand: none); 20.6 nM under setting [1]; 15.4 nM under setting [3]; 14.6 nM under setting [2].
In the same order, the values of “GCAUCCUAGUCGGCCGCCACUGCAUCACCGGUCCUAGGUGAUCAACAUGAGGAUCACCCAUGUAGCAGGACCGGGACUAGGAUGC [(Trp1)-(MT)''-(MT)'-(Ms2)-(Trp2)_Design2]” are 345 nM, 491 nM, 320 nM, 636 nM and 19.9 nM.
For “GCAUCCUAGUCGGCCGCCACUGCAUGUAGAUACCUGCUACAUGAACAUGAGGAUCACCCAUGUAGCAGGACCGGGACUAGGAUGC [(Trp1)-(MT)''-(MT)'-(Ms2)-(Trp2)_Design1]”, the “apparent KD of MS2 coat protein” value runs as follows: (input ligand: arginine 13.2 mM) 47.4 nM; (input ligand: none) 58.8 nM; under setting [1], 63.6 nM; under setting [3], 69.4 nM; under setting [2], 15.5 nM.
